From article PMC4300955

Target: 53BP1 (UniProt Q12888)
Assay: co-immunoprecipitation, Western blot
Settings: reference: wild type MOF, 3-6 h after 10 Gy; sites T392

binding against the reference: stronger
Substance: MOF (hMOF) (from UniProt Q9H7Z6) MOF-T392A, 3-6 h after 10 Gy
